Assays:
[1] = system: ALS2_T1 TALE-nuclease left subunit; assay: cell_activity; settings: yeast beta-galactosidase reporter, 37 C, as pair with right subunit; SD or SE 0.02; 0.86 (0.02) at 30 C; NHEJ in N. benthamiana protoplasts 70.68% (DNA, no UTR)
[2] = system: ALS2_T1 TALE-nuclease right subunit; assay: cell_activity; settings: yeast beta-galactosidase reporter, 37 C, as pair with left subunit; SD or SE 0.02; 0.86 (0.02) at 30 C; NHEJ in N. benthamiana protoplasts 70.68% (DNA, no …)

Sequence | activity (relative to I-SceI (max 1.0)) [1] | activity (relative to I-SceI (max 1.0)) [2]
TAGCTTGTTCCACATTT (double strand) [ALS2_T1 left target half-site] | 0.97 | 
TGTCATGCTGGGTCAG (double strand) [ALS2_T1 right target half-site] |  | 0.97

From patent US20170081672
